Measurements taken from the supplement of paper PMC9170038.

Tested on: MS2 coat protein
Test: apparent KD of MS2 coat protein; designed switch direction (-1 OFF switch, 1 ON switch): -1; higher = weaker reporter binding
How it was run: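 For each design, the apparent KD is the median over clusters of curves fitted to normalised cluster fluorescence. Clusters held RNA switches with common flanks, transcribed on Illumina chips by stalled E. coli RNA polymerase. These were titrated with SNAP-549-labelled MS2 coat protein, doubling from 0.7 or 1.5 nM to 3 µM, without input, with 200 uM small-molecule ligand, or with an oligonucleotide input.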

[1] = input ligand: microRNA oligo, concentration not stated
[2] = Eterna round: R95, input ligand: FMN 200 uM
[3] = Eterna round: R95, input ligand: microRNA oligo, concentration not stated
[4] = Eterna round: R95, input ligand: none

Row | Sequence | apparent KD of MS2 coat protein (input ligand: FMN 200 uM) | apparent KD of MS2 coat protein [1] | apparent KD of MS2 coat protein (input ligand: none) | further results
1 | UAAGAUUACCGAGGAUAUGCUGGUUUCUCUUAAGCAGAAGGCGGACUCAACAUGAGGAUCACCCAUGUAAGAAGGGUAUUAGAU [Ex NG1 #10] (Eterna round: R96, puzzle: Exclusion NG 1) | 85.9 nM | 78.6 nM | 116 nM | –
2 | UAAGAUUACCGAGGAUAUGGUAAUUUUUAUUAACCAGAAGGCGGACUCAACAUGAGGAUCACCCAUGUAUAAAGGGUAUUAGUU [JR_ExcNG1_Sub039] (Eterna round: R96, puzzle: Exclusion NG 1) | 87.5 nM | 70.7 nM | 98.7 nM | –
3 | UAAGUUGUGGUAGGAUAUACUUUAAAUUUCUCUAUCCAUACAUGAGGAUCACCCAUGUUUACAUUGUAGAAGGACCUUUUUGUU [JR_ExcNG2_Sub058] (Eterna round: R96, puzzle: Exclusion NG 2) | – | 19.7 nM | – | –
4 | UAAGUUUAGGUAGGAUAUACUUUAAAUUUCUCUAUCCAUACAUGAGGAUCACCCAUGUUUACAUUGUAGAAGGACCACUAUGUU [JR_ExcNG2_Sub055] (Eterna round: R96, puzzle: Exclusion NG 2) | – | 19.8 nM | – | –
5 | UAAGUUUAGGUAGGAUAUACUUUCAAUUUCUCUUUCCUUACAUGAGGAUCACCCAUGUUUACAUUGUAGAAGGACCACUAUGUU [JR_ExcNG2_Sub054] (Eterna round: R96, puzzle: Exclusion NG 2) | – | 20.5 nM | – | –
6 | UAAGUUUAGGUAGGAUAUACUUUUAAUUUCUCUUUCCUUACAUGAGGAUCACCCAUGUUUACAUUGUAGAAGGACCACUAUGUU [JR_ExcNG2_Sub053] (Eterna round: R96, puzzle: Exclusion NG 2) | 17.8 nM | 18.3 nM | 26.4 nM | –
7 | UAAUAAUAGCAAGGAUAUGAUUAUUAUAAUAUAUCAGAAGGUGCACAUGAGGAUCACCCAUGUUUUAUAAUUUGUAAUUUAAAU [2nd something] (Eterna round: R96, puzzle: Exclusion NG 1) | – | 40.4 nM | – | –
8 | UAAUAAUAGUCAGGAUAUAGUUAUUAUAAUAUACUAGAAGGGACACAUGAGGAUCACCCAUGUUUUAUAAUUUGUAAUUUAAAU [5th something] (Eterna round: R96, puzzle: Exclusion NG 1) | – | 16.2 nM | – | –
9 | UAAUACAAGUAAGGAUUCUACAUGAGGAUCACCCAUGUGCUCGUCUUAUAAAGUACUAUCACGAAAGUGAUAGUACA [Mat - Sensor v3 - turn-off var 1 - Eli Mod - D99] (puzzle: Sensor v3, turn-off variant 1) | – | – | – | apparent KD of MS2 coat protein [2]: 23.5 nM; apparent KD of MS2 coat protein [3]: 148 nM; apparent KD of MS2 coat protein [4]: 26.4 nM
10 | UAAUACGAUGUCAGGAUAUGUAAGACACUUGUAACACAGAAGGGACAUGAGGAUCACCCAUGUAAGGGCUCUUC [Rimala] (puzzle: Brourd's mod of Exclusion 4) | – | – | – | apparent KD of MS2 coat protein [2]: 51.4 nM; apparent KD of MS2 coat protein [3]: 20.4 nM; apparent KD of MS2 coat protein [4]: 22.6 nM
11 | UAAUAGUAUGUUAGGAUAUGCUGGUCCUUGGAUCAGCAGAAGGAACAUGAGGAUCACCCAUGUAGAAUAUUUUA [Mod of JL 18 - Jieux - Brourd's mod of Exclusion 4] (Eterna round: R97, puzzle: Brourd's mod of Exclusion 4) | 56.8 nM | – | 18.1 nM | –
12 | UAAUAGUCAGGAUAUACAUGAGGAUCACCCAUGUAGAAAUGAACCUGGGUUCUCCUAGGUAGAAGGGACAAAAG [Geerqu] (puzzle: Exclusion 3) | – | – | – | apparent KD of MS2 coat protein [2]: 28.7 nM; apparent KD of MS2 coat protein [3]: 22.7 nM; apparent KD of MS2 coat protein [4]: 24.1 nM
